The text below walks through data of US20170088610A1.

The target of assay [1] is human nerve growth factor (human) (UniProt P01138). Description: cell-based or functional assay.
Assay [2] concerns the target rat nerve growth factor (rat) (UniProt P25427). Description: cell-based or functional assay.
Assay [3] deals with human nerve growth factor (human) (UniProt P01138). Description: BIAcore SPR, Fab over immobilised human NGF.
The target is the same in assay [4]. Description: BIAcore SPR, Fab over immobilised human NGF (100 RU). Background: SPR reads the build-up and loss of mass on a sensor chip optically.
Assay [5] shares this target. Described as above. The source holds these as a separate data set.
The target is the same in assay [6].

Like-named read-outs stand apart in the source and are kept apart here.

human nerve growth factor (human), sequence (P01138 122-241 limits assumed): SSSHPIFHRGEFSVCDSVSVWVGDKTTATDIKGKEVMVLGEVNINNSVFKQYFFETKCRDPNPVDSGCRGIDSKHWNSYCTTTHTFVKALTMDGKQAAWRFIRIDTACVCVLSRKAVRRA
rat nerve growth factor (rat), sequence (P25427 122-241 limits assumed): as the sequence (P01138 122-241 limits assumed) above, with S3T, I6V, R9M, M37T, D60A, D65E, M92T, G94D, V117A, A120G counted along it

Take “mouse monoclonal anti-NGF antibody 911 (Fab)”: in assay [1], the IC50, human NGF-dependent survival of mouse E13.5 trigeminal neurons (1.5 pM NGF) worked out at 63.5 pM; the IC50, human NGF-dependent survival of mouse E13.5 trigeminal neurons (15 pM NGF) was determined as 322 pM; the NGF-elicited survival of E17/18 trigeminal neurons stood at 20 nM. In assay [2], this substance returned an IC50, rat NGF-dependent survival of mouse E13.5 trigeminal neurons (1.5 pM NGF) of 34.6 pM and an IC50, rat NGF-dependent survival of mouse E13.5 trigeminal neurons (15 pM NGF) of 161 pM. For the same substance, in assay [3], the Kd (in general, the constant that tells how readily two partners part at equilibrium) is 10 nM. Further, in assay [4], the Kd is 3.7 nM; the koff (in general, the first-order rate constant of dissociation) was 9e-05 s⁻¹; the kon (as a rule, a measure of how fast the partners come together) turned out to be 22000 M⁻¹ s⁻¹. The substance further came in with a koff in assay [5] of 8.4e-05 s⁻¹.
Turning to trkA receptor immunoadhesin (Fc fusion), the IC50 (read off the curve), NGF-dependent survival of E13.5 trigeminal neurons (0.4 ng/ml human NGF, 48 h) in assay [6] was 0.07 nM.
